Laboratory results: patent US20180194850A1 (GENERAL HOSPITAL, published 2018)

Key:
[1] = molecular target: T1, EGCRL2…; assay: CLIPS peptide-array ELISA [Continued]
T1 sequence (peptide, 2 = Cys(Acm)): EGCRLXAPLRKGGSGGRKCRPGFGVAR

[2] = molecular target: T2, peptide fragment defined by residues 130-149 of SEQ ID NO: 7 within human TNFR2 (KQEGCRLCAPLRKCRPGFGV) (human); assay: comparison of affinity for linear peptides; assay not named in the sentence (linear peptide ELISA, FIG. 13B)
T2 construct: also called linear peptide containing the KCRPG motif
T2 peptide: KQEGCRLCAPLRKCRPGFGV
Protocol: ELISA was also used to determine linear epitopes present on the extracellular surface of TNFR2.
Linear peptides corresponding to various regions within the TNFR2 primary sequence were purchased from GenScript (Piscataway, N.J.), diluted in coating buffer and placed on Immulon 4HBX Flat Bottom Microtiter Plates (Thermo Scientific) at a concentration of 1 μg/well. Primary TNFR2 antagonistic antibodies (0.1 μg/well) were incubated with substrates. Secondary antibodies against rodent IgG were used to detect the primary antibodies. Absorbance was measured using the SPECTRAMAX® 190 Absorbance Plate Reader and analyzed with SoftMax Pro 6.3 (Molecular Devices).

S03933 = molecular target: T3, S03933; assay: linear peptide ELISA (absorbance); Affinity +
T3 sequence (peptide): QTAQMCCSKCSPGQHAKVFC

Raw luminescence data [1]: 358 | fold greater affinity than for the peptide of residues 48-67 (…, SEQ ID NO: 18) [2]: 40 fold | Reading (S03933): 0.1
B1: antagonistic TNFR2 antibody TNFRAB1 (antibody, V domains shown)
VH: EVQLQESGGGLVKPGGSLKLSCAASGFTFSSYVMSWVRQTPEKRLEWVATISSGGSYTYYPDSVKGRFTISRDNAKNTLYLQMSSLRSEDTAMYYCARQRVDGYSSYWYFDVWGAGTAVTVSS
VL: DIVLTQSPAIMSASPGEKVTITCSASSSVYYMYWFQQKPGTSPKLWIYSTSNLASGVPVRFSGSGSGTSYSLTISRMEAEDAATYYCQQRRNYPYTFGGGTKLEIKR
notes: Murine monoclonal IgG; For SPR the antibody was biotinylated and captured on streptavidin; also called TNFR2 antagonist 1
